According to article PMC9482650, “Quantitative fragmentomics allow affinity mapping of interactomes” (Nature Communications, 2022):

B1: GYPC, P04921 (peptide)
chain: GDSSRKEYFI
B2: MCC, P23508 (peptide)
chain: SRPHTNETSL

biological target: T1, RAPGEF6, Q8TEU7; assay: holdup assay; design: key: below the threshold = too weak to quantify, mostly under pKd 3.1 to 4; settings: plain residues with an end cap or a label only (N-terminal biotin on a linker: ado-ado)
T1 sequence (Q8TEU7 525-625, limits assumed, looked up): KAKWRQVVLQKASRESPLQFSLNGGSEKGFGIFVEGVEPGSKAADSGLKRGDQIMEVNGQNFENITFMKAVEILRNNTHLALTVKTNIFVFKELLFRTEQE

Binder | pKd
B1 | below the threshold
B2 | below the threshold

biological target: NHERF4_1, Q86UT5-2; assay: holdup assay; design: key: below the threshold = too weak to quantify, mostly under pKd 3.1 to 4; settings: plain residues with an end cap or a label only (N-terminal biotin on a linker: ado-ado)
Sequence (Q86UT5 other isoform, or with tags, fused parts or gaps): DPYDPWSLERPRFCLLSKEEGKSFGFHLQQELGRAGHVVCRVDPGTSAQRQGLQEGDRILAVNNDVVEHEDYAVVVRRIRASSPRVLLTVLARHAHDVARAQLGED

Binder | pKd
B1 | below the threshold
B2 | 4.12

biological target: T2, MPDZ_5, O75970; assay: holdup assay; design: key: below the threshold = too weak to quantify, mostly under pKd 3.1 to 4; settings: plain residues with an end cap or a label only (N-terminal biotin on a linker: ado-ado)
T2 sequence (O75970 695-796, limits assumed, looked up): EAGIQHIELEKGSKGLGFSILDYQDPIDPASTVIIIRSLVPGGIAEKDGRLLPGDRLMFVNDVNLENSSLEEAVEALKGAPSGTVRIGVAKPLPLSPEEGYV

Binder | pKd
B1 | 4.66
B2 | below the threshold

biological target: T3, MPP6, Q9NZW5; assay: holdup assay; design: key: below the threshold = too weak to quantify, mostly under pKd 3.1 to 4; settings: plain residues with an end cap or a label only (N-terminal biotin on a linker: ado-ado)
T3 sequence (Q9NZW5 125-219, limits assumed, looked up): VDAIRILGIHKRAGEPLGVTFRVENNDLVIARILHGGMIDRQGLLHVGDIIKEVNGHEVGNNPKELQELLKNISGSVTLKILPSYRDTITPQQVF

Binder | pKd
B1 | 4.7
B2 | below the threshold

biological target: DLG4_3, P78352; assay: holdup assay; design: key: below the threshold = too weak to quantify, mostly under pKd 3.1 to 4; settings: plain residues with an end cap or a label only (N-terminal biotin on a linker: ado-ado)
Sequence (P78352 306-403): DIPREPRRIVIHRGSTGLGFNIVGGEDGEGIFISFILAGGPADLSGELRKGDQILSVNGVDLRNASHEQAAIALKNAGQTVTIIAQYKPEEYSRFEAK

Binder | pKd
B1 | below the threshold
B2 | 3.95

biological target: T4, LRRC7, Q96NW7; assay: holdup assay; design: key: below the threshold = too weak to quantify, mostly under pKd 3.1 to 4; settings: plain residues with an end cap or a label only (N-terminal biotin on a linker: ado-ado)
T4 sequence (Q96NW7 1440-1537, limits assumed, looked up): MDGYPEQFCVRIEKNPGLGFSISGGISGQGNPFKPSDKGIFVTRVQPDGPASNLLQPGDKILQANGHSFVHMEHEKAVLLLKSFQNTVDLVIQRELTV

Binder | pKd
B1 | below the threshold
B2 | below the threshold

biological target: PTPN3, P26045; assay: holdup assay; design: key: below the threshold = too weak to quantify, mostly under pKd 3.1 to 4; settings: plain residues with an end cap or a label only (N-terminal biotin on a linker: ado-ado)
Sequence (P26045 505-587): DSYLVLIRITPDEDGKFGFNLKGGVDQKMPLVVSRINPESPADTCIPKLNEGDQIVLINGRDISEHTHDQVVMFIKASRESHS

Binder | pKd
B1 | 4.16
B2 | 4.9

biological target: IL16_1, Q14005; assay: holdup assay; design: key: below the threshold = too weak to quantify, mostly under pKd 3.1 to 4; settings: plain residues with an end cap or a label only (N-terminal biotin on a linker: ado-ado)
Sequence (Q14005 210-306): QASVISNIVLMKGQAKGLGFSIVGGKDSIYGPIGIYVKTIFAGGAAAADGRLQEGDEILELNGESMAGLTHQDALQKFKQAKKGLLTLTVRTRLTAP

Binder | pKd
B1 | below the threshold
B2 | below the threshold

biological target: CASK, O14936; assay: holdup assay; design: key: below the threshold = too weak to quantify, mostly under pKd 3.1 to 4; settings: plain residues with an end cap or a label only (N-terminal biotin on a linker: ado-ado)
Sequence (O14936 487-570): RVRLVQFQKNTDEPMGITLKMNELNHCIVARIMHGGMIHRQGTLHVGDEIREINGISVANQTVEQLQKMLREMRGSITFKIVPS

Binder | pKd
B1 | below the threshold
B2 | below the threshold

biological target: Inadl_4, Q8NI35; assay: holdup assay; design: key: below the threshold = too weak to quantify, mostly under pKd 3.1 to 4; settings: plain residues with an end cap or a label only (N-terminal biotin on a linker: ado-ado)
Sequence (Q8NI35 547-651): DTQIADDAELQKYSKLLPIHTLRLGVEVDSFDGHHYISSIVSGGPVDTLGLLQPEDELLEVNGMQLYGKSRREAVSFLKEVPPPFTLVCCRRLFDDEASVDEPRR

Binder | pKd
B1 | below the threshold
B2 | below the threshold

biological target: HTRA2, O43464; assay: holdup assay; design: key: below the threshold = too weak to quantify, mostly under pKd 3.1 to 4; settings: plain residues with an end cap or a label only (N-terminal biotin on a linker: ado-ado)
Sequence (O43464 355-458): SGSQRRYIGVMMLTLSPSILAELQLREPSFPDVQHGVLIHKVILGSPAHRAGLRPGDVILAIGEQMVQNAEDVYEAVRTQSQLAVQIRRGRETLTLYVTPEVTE

Binder | pKd
B1 | 4.1
B2 | below the threshold

biological target: FRMPD2_3, Q68DX3; assay: holdup assay; design: key: below the threshold = too weak to quantify, mostly under pKd 3.1 to 4; settings: plain residues with an end cap or a label only (N-terminal biotin on a linker: ado-ado)
Sequence (Q68DX3 1073-1166): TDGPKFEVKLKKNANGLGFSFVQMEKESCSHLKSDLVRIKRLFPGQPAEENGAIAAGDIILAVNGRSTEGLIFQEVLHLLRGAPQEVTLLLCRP

Binder | pKd
B1 | 3.76
B2 | below the threshold

biological target: LDB3, O75112; assay: holdup assay; design: key: below the threshold = too weak to quantify, mostly under pKd 3.1 to 4; settings: plain residues with an end cap or a label only (N-terminal biotin on a linker: ado-ado)
Sequence (O75112 1-94): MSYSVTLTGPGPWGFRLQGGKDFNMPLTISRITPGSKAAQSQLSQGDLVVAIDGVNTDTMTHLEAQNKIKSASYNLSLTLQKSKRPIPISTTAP

Binder | pKd
B1 | below the threshold
B2 | below the threshold

biological target: T5, MPDZ_10, O75970; assay: holdup assay; design: key: below the threshold = too weak to quantify, mostly under pKd 3.1 to 4; settings: plain residues with an end cap or a label only (N-terminal biotin on a linker: ado-ado)
T5 sequence (O75970 1624-1722, limits assumed, looked up): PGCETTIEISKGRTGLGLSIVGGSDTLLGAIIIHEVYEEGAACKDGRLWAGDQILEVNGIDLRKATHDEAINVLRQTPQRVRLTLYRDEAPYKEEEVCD

Binder | pKd
B1 | below the threshold
B2 | below the threshold

biological target: PDZRN4_1, Q6ZMN7; assay: holdup assay; design: key: below the threshold = too weak to quantify, mostly under pKd 3.1 to 4; settings: plain residues with an end cap or a label only (N-terminal biotin on a linker: ado-ado)
Sequence (Q6ZMN7 213-318): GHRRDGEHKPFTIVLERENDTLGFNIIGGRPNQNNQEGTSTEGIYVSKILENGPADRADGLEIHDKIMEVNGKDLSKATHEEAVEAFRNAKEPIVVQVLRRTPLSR

Binder | pKd
B1 | below the threshold
B2 | 5.22

biological target: GRIP2_6, Q9C0E4; assay: holdup assay; design: key: below the threshold = too weak to quantify, mostly under pKd 3.1 to 4; settings: plain residues with an end cap or a label only (N-terminal biotin on a linker: ado-ado)
Sequence (Q9C0E4 648-740): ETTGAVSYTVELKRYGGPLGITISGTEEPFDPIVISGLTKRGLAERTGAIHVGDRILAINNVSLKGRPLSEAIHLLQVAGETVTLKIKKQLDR

Binder | pKd
B1 | 4.67
B2 | below the threshold

biological target: T6, DFNB31_2, Q9P202; assay: holdup assay; design: key: below the threshold = too weak to quantify, mostly under pKd 3.1 to 4; settings: plain residues with an end cap or a label only (N-terminal biotin on a linker: ado-ado)
T6 sequence (Q9P202 274-371, limits assumed, looked up): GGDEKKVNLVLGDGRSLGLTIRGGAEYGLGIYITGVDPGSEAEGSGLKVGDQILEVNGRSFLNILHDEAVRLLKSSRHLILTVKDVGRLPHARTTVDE

Binder | pKd
B1 | below the threshold
B2 | below the threshold

biological target: T7, MPP7, Q5T2T1; assay: holdup assay; design: key: below the threshold = too weak to quantify, mostly under pKd 3.1 to 4; settings: plain residues with an end cap or a label only (N-terminal biotin on a linker: ado-ado)
T7 sequence (Q5T2T1 134-230, limits assumed, looked up): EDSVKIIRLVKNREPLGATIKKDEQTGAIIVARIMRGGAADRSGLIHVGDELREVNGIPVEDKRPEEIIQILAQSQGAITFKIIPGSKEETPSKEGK

Binder | pKd
B1 | 5.18
B2 | below the threshold

biological target: T8, GRIP1_2, Q9Y3R0; assay: holdup assay; design: key: below the threshold = too weak to quantify, mostly under pKd 3.1 to 4; settings: plain residues with an end cap or a label only (N-terminal biotin on a linker: ado-ado)
T8 sequence (Q9Y3R0 145-248, limits assumed, looked up): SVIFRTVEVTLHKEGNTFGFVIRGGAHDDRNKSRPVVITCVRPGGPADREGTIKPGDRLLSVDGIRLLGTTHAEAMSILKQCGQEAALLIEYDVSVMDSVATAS

Binder | pKd
B1 | below the threshold
B2 | below the threshold

biological target: FRMPD4, Q14CM0; assay: holdup assay; design: key: below the threshold = too weak to quantify, mostly under pKd 3.1 to 4; settings: plain residues with an end cap or a label only (N-terminal biotin on a linker: ado-ado)
Sequence (Q14CM0 67-160): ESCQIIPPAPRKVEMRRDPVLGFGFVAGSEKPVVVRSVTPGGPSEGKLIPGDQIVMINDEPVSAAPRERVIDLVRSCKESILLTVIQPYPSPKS

Binder | pKd
B1 | below the threshold
B2 | 4.49

biological target: MAGI3_2, Q5TCQ9; assay: holdup assay; design: key: below the threshold = too weak to quantify, mostly under pKd 3.1 to 4; settings: plain residues with an end cap or a label only (N-terminal biotin on a linker: ado-ado)
Sequence (Q5TCQ9 398-503): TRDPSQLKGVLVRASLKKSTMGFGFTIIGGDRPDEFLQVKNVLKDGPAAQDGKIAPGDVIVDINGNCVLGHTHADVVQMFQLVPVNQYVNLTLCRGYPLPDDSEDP

Binder | pKd
B1 | 4.41
B2 | 4.09

biological target: GIPC2, Q8TF65; assay: holdup assay; design: key: below the threshold = too weak to quantify, mostly under pKd 3.1 to 4; settings: plain residues with an end cap or a label only (N-terminal biotin on a linker: ado-ado)
Sequence (Q8TF65 112-203): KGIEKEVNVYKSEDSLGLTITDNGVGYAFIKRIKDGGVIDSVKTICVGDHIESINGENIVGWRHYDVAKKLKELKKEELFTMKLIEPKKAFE

Binder | pKd
B1 | below the threshold
B2 | 4.08

biological target: MAGI2_5, Q86UL8; assay: holdup assay; design: key: below the threshold = too weak to quantify, mostly under pKd 3.1 to 4; settings: plain residues with an end cap or a label only (N-terminal biotin on a linker: ado-ado)
Sequence (Q86UL8 915-1017): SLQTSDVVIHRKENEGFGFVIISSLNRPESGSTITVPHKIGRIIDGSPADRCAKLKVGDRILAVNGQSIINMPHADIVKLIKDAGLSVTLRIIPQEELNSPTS

Binder | pKd
B1 | below the threshold
B2 | 3.72

biological target: T9, GRIP1_7, Q9Y3R0; assay: holdup assay; design: key: below the threshold = too weak to quantify, mostly under pKd 3.1 to 4; settings: plain residues with an end cap or a label only (N-terminal biotin on a linker: ado-ado)
T9 sequence (Q9Y3R0 999-1096, limits assumed, looked up): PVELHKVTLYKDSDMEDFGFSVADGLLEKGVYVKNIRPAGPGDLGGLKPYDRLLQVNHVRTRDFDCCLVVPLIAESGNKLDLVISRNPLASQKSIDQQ

Binder | pKd
B1 | 3.76
B2 | below the threshold

biological target: T10, RADIL, Q96JH8; assay: holdup assay; design: key: below the threshold = too weak to quantify, mostly under pKd 3.1 to 4; settings: plain residues with an end cap or a label only (N-terminal biotin on a linker: ado-ado)
T10 sequence (Q96JH8 971-1071, limits assumed, looked up): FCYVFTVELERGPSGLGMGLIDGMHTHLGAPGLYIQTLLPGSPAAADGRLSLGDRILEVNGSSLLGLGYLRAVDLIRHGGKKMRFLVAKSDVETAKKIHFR

Binder | pKd
B1 | 4.43
B2 | below the threshold

biological target: MAGI2_3, Q86UL8; assay: holdup assay; design: key: below the threshold = too weak to quantify, mostly under pKd 3.1 to 4; settings: plain residues with an end cap or a label only (N-terminal biotin on a linker: ado-ado)
Sequence (Q86UL8 600-682): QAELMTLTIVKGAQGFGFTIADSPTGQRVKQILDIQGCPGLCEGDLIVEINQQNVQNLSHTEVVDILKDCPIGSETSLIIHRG

Binder | pKd
B1 | below the threshold
B2 | below the threshold

biological target: Inadl_2, Q8NI35; assay: holdup assay; design: key: below the threshold = too weak to quantify, mostly under pKd 3.1 to 4; settings: plain residues with an end cap or a label only (N-terminal biotin on a linker: ado-ado)
Sequence (Q8NI35 238-335): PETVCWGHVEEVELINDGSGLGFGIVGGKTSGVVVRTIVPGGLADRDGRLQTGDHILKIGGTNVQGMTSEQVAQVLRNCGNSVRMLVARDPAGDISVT

Binder | pKd
B1 | 4.99
B2 | below the threshold

biological target: MAST1, Q9Y2H9; assay: holdup assay; design: key: below the threshold = too weak to quantify, mostly under pKd 3.1 to 4; settings: plain residues with an end cap or a label only (N-terminal biotin on a linker: ado-ado)
Sequence (Q9Y2H9 962-1065): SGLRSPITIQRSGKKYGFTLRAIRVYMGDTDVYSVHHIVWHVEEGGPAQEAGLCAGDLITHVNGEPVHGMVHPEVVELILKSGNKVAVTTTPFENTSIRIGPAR

Binder | pKd
B1 | below the threshold
B2 | 4.96
